Data reported in paper PMC8741645 (Structure (London, England : 1993), 2021).

Molecular target: the molecule itself
Experiment: cryo-EM structure

B1: Saccharomyces cerevisiae vacuolar transient receptor potential yeast 1 (TRPY1) channel, full length, wild type (natural protein, UniProt Q12324 1-675, looked up)
chain: MVSANGDLHLPISNEQCMPENNGSLGFEAPTPRQILRVTLNLKYLIDKVVPIVYDPNDIVCDHSEILSPKVVKLAYEACGGNPKDKANKRKYQSVIIFSLLKVCEWYSILATMEVHNAKLYETRNLASQQLCKLLIEREETRDLQFLFMQLLLRRYVINENDEDQEPLNALELATDMHCTTVIGSSGFQRCLKWIWRGWIVQNGLDPTTFIKDDSLAEVSLISHFNPVRLKAPVYQNYLQMIFSFLFLGLYTLVVNGKDSERVQSFDLLESIFYVFNTGFILDELTKLYYIGYAHLSFWNLFNDTTYLIITFAMGFRAMSVTPLNAKYSSEDWDKISYRVLSCAAPFVWSRLLLYLESQRFIGIMLVILKHMMKESIVFFFLLFLIMIGFTQGFLGLDSADGKRDITGPILGNLTITVLGLGSFDVFEEFAPPYAAILYYGYYFIVSVILLNILIALYSTAYQKVIDNADDEYMALMSQKTLRYIRAPDEDVYVSPLNLIEVFMTPIFRILPPKRAKDLSYTVMTIVYSPFLLLISVKETREARRIKYNRMKRLNDDANEYDTPWDLTDGYLDDDDGLFSDNRNSGMRATQLKNSRSLKLQRTAEQEDVHFKVPKKWYKNVKKCSPSFEQYDNDDTEDDAGEDKDEVKELTKKVENLTAVITDLLEKLDIKDKKE
- stoichiometry N: 4
